{"source": "paper PMC6652007", "about": "“Metabolic engineering of Clostridium thermocellum for n-butanol production from cellulose” (Biotechnology for Biofuels, 2019)", "key": {"[1]": {"system": "CC(O)CC(=O)SCCNC(=O)CCNC(=O)[C@H](O)C(C)(C)COP(=O)(O)OP(=O)(O)OC[C@H]1O[C@@H](n2cnc3c(N)ncnc32)[C@H](O)[C@@H]1OP(=O)(O)O", "assay": "purified protein", "conditions": "0.3 mM NADH, coupled with Ter, 100 mM MOPS-KOH pH 7.5, 55 °C"}, "[2]": {"system": "T1, CC(=O)CC(=O)SCCNC(=O)CCNC(=O)[C@H](O)C(C)(C)COP(=O)(O)OP(=O)(O)OC[C@H]1O[C@@H](n2cnc3c(N)ncnc32)[C@H](O)[C@@H]1OP(=O)(O)O", "T1 construct": "His-tagged (vector pD861-CH), codon-optimised, expressed in E. coli BL21(DE3)", "assay": "NADH oxidation, A340", "format": "biochemical, Thermoanaerobacterium thermosaccharolyticum", "conditions": "0.3 mM NADH, 100 mM MOPS-KOH pH 7.5, 55 °C", "excerpt": "NADH oxidation, A340 on Tt_Hbd"}, "[3]": {"system": "T2, NC(=O)C1=CN([C@@H]2O[C@H](COP(=O)(O)OP(=O)(O)OC[C@H]3O[C@@H](n4cnc5c(N)ncnc54)[C@H](OP(=O)(O)O)[C@@H]3O)[C@@H](O)[C@H]2O)C=CC1", "T2 construct": "His-tagged (vector pD861-CH), codon-optimised, expressed in E. coli BL21(DE3)", "assay": "NAD(P)H oxidation, A340", "format": "biochemical, Thermoanaerobacterium thermosaccharolyticum", "conditions": "acetoacetyl-CoA as substrate, 100 mM MOPS-KOH pH 7.5, 55 °C, varied: cofactor", "excerpt": "(§1) NAD(P)H oxidation, A340 on Tt_Hbd"}, "[4]": {"system": "T3, NC(=O)C1=CN([C@@H]2O[C@H](COP(=O)(O)OP(=O)(O)OC[C@H]3O[C@@H](n4cnc5c(N)ncnc54)[C@H](O)[C@@H]3O)[C@@H](O)[C@H]2O)C=CC1", "T3 construct": "His-tagged (vector pD861-CH), codon-optimised, expressed in E. coli BL21(DE3)", "assay": "NAD(P)H oxidation, A340", "format": "biochemical, Thermoanaerobacterium thermosaccharolyticum", "conditions": "acetoacetyl-CoA as substrate, 100 mM MOPS-KOH pH 7.5, 55 °C, varied: cofactor", "excerpt": "as §1"}}, "data": [{"substance": "Tt_Crt (Thermoanaerobacterium thermosaccharolyticum DSM 571)", "values": [{"measurement": "Km", "setting": "[1]", "value": "600 ± 100", "unit": "µM"}]}, {"substance": "Tt_Hbd (Thermoanaerobacterium thermosaccharolyticum DSM 571)", "values": [{"measurement": "Km", "setting": "[2]", "value": "30 ± 10", "unit": "µM"}, {"measurement": "Km", "setting": "[3]", "value": "1100 ± 200", "unit": "µM"}, {"measurement": "Vmax", "setting": "[3]", "value": 15.2, "unit": "µmol/min/mg"}, {"measurement": "Km", "setting": "[4]", "value": "50 ± 20", "unit": "µM"}, {"measurement": "Vmax", "setting": "[4]", "value": 61.4, "unit": "µmol/min/mg"}]}, {"substance": "Tt_Hbd (Thermoanaerobacterium thermosaccharolyticum DSM 571; D31A)", "values": [{"measurement": "Km", "setting": "[3]", "value": "30 ± 10", "unit": "µM"}, {"measurement": "Vmax", "setting": "[3]", "value": 485, "unit": "µmol/min/mg"}, {"measurement": "Km", "setting": "[4]", "value": "60 ± 20", "unit": "µM"}, {"measurement": "Vmax", "setting": "[4]", "value": 38.5, "unit": "µmol/min/mg"}]}]}
